Measured values reported in US20200231670A1 (AGENSYS, published 2020).

Assays:
[1] = molecular target: T1, recombinant extracellular domain of human Nectin-4 protein (fragment aa 31-346) (human, UniProt Q96NY8 31-346); assay: ELISA
T1 construct: Made in E. coli with a 6xHN tag from a pET vector; The primary screen used aa 31-346; The secondary screen also used a 293FT-made fragment, printed as aa 1-346 in one place and aa 1-348 in another, with a myc-his tag; also called 6xHN-tagged Nectin 4 (aa 31-346); Nectin-4 extracellular domain fragment (amino acid residues 31-346)
T1 sequence: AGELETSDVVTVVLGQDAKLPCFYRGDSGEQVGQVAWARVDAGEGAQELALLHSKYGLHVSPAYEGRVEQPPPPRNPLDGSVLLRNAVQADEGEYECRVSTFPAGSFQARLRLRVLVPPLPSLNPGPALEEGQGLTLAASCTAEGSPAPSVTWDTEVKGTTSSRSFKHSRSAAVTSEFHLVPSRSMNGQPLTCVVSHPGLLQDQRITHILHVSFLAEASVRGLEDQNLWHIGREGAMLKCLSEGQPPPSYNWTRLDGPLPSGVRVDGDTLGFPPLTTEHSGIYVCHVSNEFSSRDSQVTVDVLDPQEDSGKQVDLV

[2] = molecular target: T2, Nectin-4 fragment V (amino acid residues 1-150 of human Nectin-4) (human, UniProt Q96NY8 32-150); assay: Western blot of cell lysates (FIG. 13)
T2 construct: Expressed in transfected cells and tested as a reduced RIPA lysate on a Western blot; Any tag or membrane anchor of the construct is not described; also called V fragment/domain
T2 sequence: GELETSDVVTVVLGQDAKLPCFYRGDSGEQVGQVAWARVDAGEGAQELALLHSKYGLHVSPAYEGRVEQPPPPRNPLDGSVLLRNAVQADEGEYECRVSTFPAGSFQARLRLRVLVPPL
Description: The cells expressing various Nectin-4 fragments were cultured and lysed in RIPA buffer. […] A 1:10000 dilution of a-GAPDH antibody (Chicken pAb, Millipore) was used detect GAPDH as a loading control. Antibodies bound to the protein bands were then detected with either 1:5000 dilution of Goat-anti-Mouse antibody conjugated with IRDye 680 (Odyssey) or 1:5000 Donkey anti-a-Chicken conjugated with IRDye 800 (Odyssey) and visualized in Odyssey system.

[3] = molecular target: T3, Nectin-1 over-expressed by engineered Rat1(E) cells (UniProt Q15223 31-517, limits assumed); assay: IHC, FFPE Rat1(E) cells expressing Nectin-1
T3 construct: whole, on cells; also called Rat1(E)-Nectin-1; Rat1(E) Nectin1
T3 sequence (looked up): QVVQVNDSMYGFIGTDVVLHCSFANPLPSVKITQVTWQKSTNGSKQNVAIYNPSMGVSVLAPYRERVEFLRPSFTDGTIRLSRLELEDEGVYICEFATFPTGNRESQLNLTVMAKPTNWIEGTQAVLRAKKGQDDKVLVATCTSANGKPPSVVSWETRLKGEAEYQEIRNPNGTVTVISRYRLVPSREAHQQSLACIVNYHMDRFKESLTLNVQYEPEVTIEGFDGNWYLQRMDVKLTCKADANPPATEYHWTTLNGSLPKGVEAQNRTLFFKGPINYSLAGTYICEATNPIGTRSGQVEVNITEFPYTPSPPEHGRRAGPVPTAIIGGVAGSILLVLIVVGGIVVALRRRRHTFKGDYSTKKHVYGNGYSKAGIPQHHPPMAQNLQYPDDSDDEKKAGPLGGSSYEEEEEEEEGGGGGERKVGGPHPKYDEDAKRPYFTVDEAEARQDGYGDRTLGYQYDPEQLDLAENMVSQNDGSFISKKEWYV

[4] = molecular target: T4, Nectin-2 over-expressed by engineered Rat1(E) cells (UniProt Q92692 32-538, limits assumed); assay: IHC, FFPE Rat1(E) cells expressing Nectin-2
T4 construct: whole, on cells; also called Rat1(E)-Nectin-2; Rat1(E) Nectin2
T4 sequence (looked up): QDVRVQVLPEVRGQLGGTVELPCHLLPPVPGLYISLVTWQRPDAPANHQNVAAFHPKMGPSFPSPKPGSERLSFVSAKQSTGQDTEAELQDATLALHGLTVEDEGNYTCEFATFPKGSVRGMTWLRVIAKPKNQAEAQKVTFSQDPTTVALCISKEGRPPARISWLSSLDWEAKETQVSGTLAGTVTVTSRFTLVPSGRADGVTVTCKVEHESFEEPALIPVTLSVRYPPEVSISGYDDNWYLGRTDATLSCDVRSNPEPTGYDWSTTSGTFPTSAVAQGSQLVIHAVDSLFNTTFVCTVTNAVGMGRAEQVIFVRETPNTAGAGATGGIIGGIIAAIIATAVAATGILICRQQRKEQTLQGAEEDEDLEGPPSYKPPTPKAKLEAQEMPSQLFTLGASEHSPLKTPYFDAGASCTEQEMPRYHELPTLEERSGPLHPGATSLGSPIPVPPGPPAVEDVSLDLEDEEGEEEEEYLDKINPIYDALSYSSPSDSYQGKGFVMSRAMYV
Description: (§1) IHC staining was performed according to the following exemplary protocols. Briefly, an indirect IHC technique was used to detect Nectin-4 in the IHC assay. The samples were fixed in 10% buffered neutral formalin, processed and embedded into paraffin wax, and prepared as 4 μm tissue sections. After deparaffinization and re-hydration, sections were treated for antigen retrieval. The antigen epitopes in Nectin-4 were retrieved, for example, by application of heat to the tissue sections in an aqueous medium, commonly referred to as a Heat-Induced Epitope Retrieval (HIER) procedure. […] The tissue sections bound with primary antibodies were washed and detected with an enzyme-labeled, e.g. peroxidase-labeled, secondary antibody. […] The stained tissue sections were then scanned, imaged, and evaluated with light microscopy, for example, using an Aperio ScanScope CS (Aperio, Vista, Calif.).
(§2) To assess the level of Nectin-4 expression in the tissue sections by the level of antibody staining, stained tissue sections were assessed, evaluated, categorized, and recorded into different categories or scores according to the intensity of the IHC staining and cancer cell positivity ratio. […] Lack of specific staining was recorded as negative (“0” or interchangeably with as “−”).

[5] = molecular target: T5, human Nectin-4 (human, UniProt Q96NY8 32-510); assay: IHC score, FFPE xenograft AG-OV35, 2.5 µg/mL
T5 construct: As expressed in human tumour xenograft tissues, human cell lines (T47D, NCI H322M) and Rat1(E) cells engineered to overexpress Nectin-4; Tested as FFPE sections (IHC) or as reduced lysates (Western blot); also called PVRL4; poliovirus receptor-related protein 4
T5 sequence: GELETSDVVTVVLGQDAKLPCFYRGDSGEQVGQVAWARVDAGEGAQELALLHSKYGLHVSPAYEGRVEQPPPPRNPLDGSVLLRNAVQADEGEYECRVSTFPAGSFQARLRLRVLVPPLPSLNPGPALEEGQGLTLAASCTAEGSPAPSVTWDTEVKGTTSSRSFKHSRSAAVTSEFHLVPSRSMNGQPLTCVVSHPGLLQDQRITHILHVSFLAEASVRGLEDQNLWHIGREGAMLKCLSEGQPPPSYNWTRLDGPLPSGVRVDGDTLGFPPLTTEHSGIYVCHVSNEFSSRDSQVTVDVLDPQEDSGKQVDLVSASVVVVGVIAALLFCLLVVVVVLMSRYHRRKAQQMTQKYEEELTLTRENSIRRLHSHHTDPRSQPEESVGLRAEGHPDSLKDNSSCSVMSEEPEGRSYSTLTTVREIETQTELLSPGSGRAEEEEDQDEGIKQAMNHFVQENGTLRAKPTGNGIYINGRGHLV
Description: as §1, §2

B1: M22-321b41.1 anti-Nectin-4 mouse monoclonal antibody (antibody, mouse IgG2a, kappa, V domains shown)
VH: QVQLQQSGAELARPGASVKLSCKASGYTFTTYWMQWVKQRPGQGLEWIGSIYPGDGDTRYTQKFKGKATLTADKSSSTAYIQLSTLASEDSAVYYCAREYYGLDYWGQGTTLTVSS
VL: DIVMTQAAFSNPVTLGTSASISCRSSKSLLHSNGITYLYWYLQKPGQSPQLLIYHMSNLASGVPDRFTSSGSGTDFTLRISRVEAEDVGVYYCAQNLELPFTFGGGTKLETKR
notes: Mouse IgG2a kappa from hybridoma M22-321b41.1 (ATCC PTA-124245), protein A purified; also called mAb M22-321b41.1; M22-321b1.1
binding result [1]: binds | binding result [2]: binds | binding result [3]: no binding (tested: 2.5 µg/mL) | binding result [4]: no binding (tested: 2.5 µg/mL) | binding result [5]: binds
